Experimental data: patent publication US20230167431

System: CCR5-targeting megaTAL (CCR5MT) expressed as a CCR5MT-tEGFR fusion (Artificial sequence)
Assay: cell_activity
Settings: tEGFR-sorted primary human CD4 T cells, donor 1; estimated InDels 58.76%; donor 2 73.54% cleaved; untreated 0%; SEQ:6 assigned to the megaTAL by inference from …

Substance: CCR5 gene megaTAL target site
- activity (% cleaved DNA (T7E1)): 83
